# According to publication PMC139967 (BMC Biochemistry, 2002):
# What was measured:
# [1] = target: bovine-brain calmodulin (bovine, UniProt P62157 1-149); test: other fluorescence titration
# [2] = target: Alexa Fluor 488 calmodulin (UniProt P62157 1-149); test: other fluorescence titration
stoichiometry N [1] [peptide per calmodulin],Binder,Kd [2] [nM]
1,CHMKHSAVEIQSWWRGTIGRRKAA [bullfrog Myo1c IQ2 peptide],
1,CRKHSIATFLQARWRGYHQRQKFL [bullfrog Myo1c IQ1 peptide],

Binder,stoichiometry N [1] [peptide per calmodulin],Kd [2] [nM]
CKRKWAVDVVRRFIKGFIYRNQPR [bullfrog Myo1c IQ3 peptide],1,2000
